Measurements: patent publication US20230321189

Target: tropomyosin-receptor kinase B-full-length (TrkB-FL), endogenous rat, Q63604
Sequence (Q63604 32-821): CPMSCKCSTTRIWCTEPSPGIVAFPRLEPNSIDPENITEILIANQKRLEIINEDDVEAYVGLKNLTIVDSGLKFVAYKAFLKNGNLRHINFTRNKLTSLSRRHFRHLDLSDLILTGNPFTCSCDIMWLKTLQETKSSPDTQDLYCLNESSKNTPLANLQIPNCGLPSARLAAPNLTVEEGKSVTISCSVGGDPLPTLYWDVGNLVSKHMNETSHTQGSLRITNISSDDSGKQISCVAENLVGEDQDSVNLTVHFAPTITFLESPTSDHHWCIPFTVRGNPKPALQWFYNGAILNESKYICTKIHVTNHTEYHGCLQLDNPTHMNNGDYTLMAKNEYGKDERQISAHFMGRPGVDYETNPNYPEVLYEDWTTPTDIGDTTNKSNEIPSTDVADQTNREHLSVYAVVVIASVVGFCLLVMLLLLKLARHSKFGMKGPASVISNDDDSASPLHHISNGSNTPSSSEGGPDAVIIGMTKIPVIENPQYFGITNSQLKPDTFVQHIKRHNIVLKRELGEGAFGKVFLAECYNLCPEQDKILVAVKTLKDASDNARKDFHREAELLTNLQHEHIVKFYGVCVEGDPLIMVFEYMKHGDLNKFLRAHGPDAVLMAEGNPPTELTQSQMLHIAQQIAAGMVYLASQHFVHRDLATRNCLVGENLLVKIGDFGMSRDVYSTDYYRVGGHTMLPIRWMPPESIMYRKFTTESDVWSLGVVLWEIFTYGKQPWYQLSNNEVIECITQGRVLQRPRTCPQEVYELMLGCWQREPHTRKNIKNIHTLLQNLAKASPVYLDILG

B1: purified rat m-calpain (protein)
chain: MAGIAMKLAKDREAAEGLGSHERAIKYLNQDYETLRNECLEAGALFQDPSFPALPSSLGFKELGPYSSKTRGIEWKRPTEICADPQFIIGGATRTDICQGALGDCWLLAAIASLTLNEEILARVVPLDQSFQENYAGIFHFQFWQYGEWVEVVVDDRLPTKDGELLFVHSAEGSEFWSALLEKAYAKINGCYEALSGGATTEGFEDFTGGIAEWYELRKPPPNLFKIIQKALEKGSLLGCSIDITSAADSEAVTYQKLVKGHAYSVTGAEEVESSGSLQKLIRIRNPWGQVEWTGKWNDNCPSWNTVDPEVRANLTERQEDGEFWMSFSDFLRHYSRLEICNLTPDTLTCDSYKKWKLTKMDGNWRRGSTAGGCRNYPNTFWMNPQYLIKLEEEDEDDEDGERGCTFLVGLIQKHRRRQRKMGEDMHTIGFGIYEVPEELTGQTNIHLSKNFFLTTRARERSDTFINLREVLNRFKLPPGEYVLVPSTFEPHKNGDFCIRVFSEKKADYQTVDDEIEANIEEIEANEEDIGDGFRRLFAQLAGEDAEISAFELQTILRRVLAKREDIKSDGFSIETCKIMVDMLDEDGSGKLGLKEFYILWTKIQKYQKIYREIDVDRSGTMNSYEMRKALEEAGFKLPCQLHQVIVARFADDELIIDFDNFVRCLVRLEILFKIFKQLDPENTGTIQLDLISWLSFSVL
With B1 the “TrkB-FL protein levels and TrkB-ICD formation in DIV8 neuronal cultures lysate (western blot, enzyme cleavage)” value was “decrease of TrkB-FL protein levels with concomitant TrkB-ICD formation when both exogenous m-calpain (1 or 2 EU) and CaCl2 (2 mM) were added” and the “TrkB-FL protein levels and TrkB-ICD formation in adult rat brain cortex homogenate (western blot, enzyme cleavage)” value was “decrease of TrkB-FL protein levels with concomitant TrkB-ICD formation when both exogenous m-calpain (1 or 2 enzymatic units, EU) and CaCl2 (2 mM) were added”.
